Reference: US20240254209A1
“And” between values parts separate entries of the source, which are not always exact repeats. Equal entries are not always repeated.

T1: peanut allergen Ara h 1 (peanut (Arachis hypogaea)) (UniProt P43238)
T1 sequence (looked up): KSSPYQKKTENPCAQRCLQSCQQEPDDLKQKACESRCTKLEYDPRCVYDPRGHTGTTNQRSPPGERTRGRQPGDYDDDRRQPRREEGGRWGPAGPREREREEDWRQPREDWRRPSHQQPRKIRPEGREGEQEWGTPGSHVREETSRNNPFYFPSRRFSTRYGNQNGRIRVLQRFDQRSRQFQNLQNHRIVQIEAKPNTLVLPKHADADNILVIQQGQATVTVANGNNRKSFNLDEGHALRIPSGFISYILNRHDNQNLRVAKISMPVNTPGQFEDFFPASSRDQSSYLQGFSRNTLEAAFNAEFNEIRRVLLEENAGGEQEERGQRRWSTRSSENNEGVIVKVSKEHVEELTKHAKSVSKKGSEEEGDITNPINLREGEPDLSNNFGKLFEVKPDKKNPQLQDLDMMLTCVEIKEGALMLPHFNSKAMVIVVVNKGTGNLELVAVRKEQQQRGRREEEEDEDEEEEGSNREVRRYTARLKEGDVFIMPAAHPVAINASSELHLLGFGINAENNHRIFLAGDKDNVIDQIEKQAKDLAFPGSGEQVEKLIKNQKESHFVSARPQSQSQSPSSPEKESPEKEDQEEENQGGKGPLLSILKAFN

T2: peanut allergen Ara h 2 (peanut (Arachis hypogaea)) (UniProt Q6PSU2)
T2 sequence (looked up): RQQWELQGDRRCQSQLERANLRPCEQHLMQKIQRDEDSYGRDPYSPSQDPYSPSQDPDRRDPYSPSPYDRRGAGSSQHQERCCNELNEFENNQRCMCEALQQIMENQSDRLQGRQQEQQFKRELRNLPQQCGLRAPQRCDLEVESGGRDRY

T3: peanut allergen Ara h 6 (peanut (Arachis hypogaea)) (UniProt Q647G9)
T3 sequence (looked up): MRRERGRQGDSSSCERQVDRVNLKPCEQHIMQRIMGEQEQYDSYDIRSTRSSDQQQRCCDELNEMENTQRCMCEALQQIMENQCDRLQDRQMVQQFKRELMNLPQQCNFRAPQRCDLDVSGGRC

B1: human IgE mAb 38B7 (antibody, V domains shown)
VH: QVQLVESGGGVVQPGRSLRLSCVGSGFTFRRDAKYWVRQAPGKGLEWVAAISHDGGEEDYAESVKGRFTISRDNSRETVYLEMNSLRPEDTAVYYCATTRSGWYFDYWGQGALVTVSS
VL: EIVLTQSPATLSLSPGARATLSCRASQSVDTYLAWYQQRRGQSPRLLIYDASKRATGIPARFSGSGSGTDFTLTISSLEPEDFAVYYCQQRNNWRTWTFGQGTKVEIN
B2: human IgE mAb 15A7 (antibody, V domains shown)
VH: QVQLVQSGPEVRKPGASVKVSCKTSGYMFTDYEMNWVRQAPGQGLEWMGLINPHSGDTGYAQKFQGRVSMTSDTSTRTFYLELTGLTSEDTAVYYCARSQGTFEVYYFVSWGQGSLVTVSS
VL: SYVLTQPPSVSVAPGKTASITCGAKNIATKRVHWYRQKPGQAPVVVVSDEEDRSSVIPERFSGSKSGDTATLEISRVEAGDEADYYCQVWDSLADQVVFGGGTKVTVL
B3: Ara h 6-specific blocking IgG mAb 1H9 (antibody, V domains shown)
VH: QVQLVQSGSELRKPGASVKVSCKASGYTFTKYGMNWVRQAPGQGLEWMGWINTNTAKPTYAQDFTGRFVFSLDTSVNTAYLEISGLKAEDTAVYYCATDGSEGSWGQGTLVTVSS
VL: DIQMTQSPSTLSASVGDRVTITCRASQSIGTWLAWHQQKPGTAPKVLIYKASNLKSGVPSRFSGSGSGTDFTLTISSLQPDDVATYYCQQYNTYSGTFGQGTRVEIK
B4: human IgE mAb 26A5 (antibody, V domains shown)
VH: B3 VH
VL: B3 VL
B5: human IgE mAb 3C3 (antibody, V domains shown)
VH: QLQLQESGPGLVKPSETLSLTCSISGASINSDDYYWGWIRQAPGEALEWIASIDASGTTFYNPSLRSRVTISVDTSTNQISLRLNSVTAADTAIYYCARRKTYYDFLTDYYNWYFDVWGRGTLVTVSS
VL: QSALTQPRSVSGSPGQSVTFSCTGINSDIRDYDYVSWYQQHPGEAPKLIIYDVTKRASGVPSRFSGSKSGNTASLTISGLQAEDEADYYCCSYSVTYSFEVFGTGTQVSVL
B6: human IgE mAb 21C10 (antibody, V domains shown)
VH: EVQLVESGGGLVKPGGSLRLSCAASGFILSRSSMSWVRQAPGKGLEWVSYISSTSSHIYYADSLKGRFTISRDNTENSVYLQMSSLRAEDTGVYYCARKTNGAWFLDLWGRGTLVTVSS
VL: QSVLTQPPSVSGAPGQRVTISCTGSSSNIGAGSDVHWYQQFPGSAPHVLIYGNNQRPSGVPDRFSASKSGTSASLAITGLQADDEADYYCQSYDYDLSGSWVFGGGTKLTVL
B7: Ara h 6-specific blocking IgG mAb 8F3 (antibody, V domains shown)
VH: QLQLQESGPGLVKPSETLSLTCTVSDASIDTPSYFWSWIRQPPGKGLEWIGSIYYTGNKYSNPSLKSRVTMSVDTPKRQFSLRLSSVTAADTAVYYCARYVDYVWLRAFDIWGQGTRVTVSS
VL: EIVLTQSPATLSLSPGERATLSCRASPSAGRFLAWYQQRPGQAPRLLIYDASKRATDTPARFSGSGSGTDFNLTIASLEPEDFAVYYCQHRSNWPLTFGGGTKVEIK
B8: human IgE mAb 3B7 (antibody, V domains shown)
VH: QVQLVQSGSELKKPGASMKVSCKASGYTFTNYAMNWVRQAPGQGLEWMGWINTNTGKPTYAQGFTGRFVFSLDTSVSMAYLQISSLEAGDTAVYFCARGESLAALGSFAYWGQGTLVTVSS
VL: DIQMTQSPSSLSASVGDRVTITCRASQSINSYLAWYQQKPGKAPNLLIYAASNLQSGVPSRFSGSGSGTDFTLTISSLQPEDFATYYCQQSSSTFWTFGQGTKVEIK
B9: human IgE mAb 7B6 (antibody, V domains shown)
VH: QVQLQQWGAGLLKPSETLSLTCAVYGGSFNGYYWSWIRQPPGKGLEWIGEIDHSGSTNYNSSLKSRVTISVDTSKNQFSLKLSSVTAADTAVYYCARRRIGSLLKYFQDWGQGTLVTVSS
VL: SYELTQPPSVSVSPGQTASITCSGDKLGDSYVCWYQLKPGQSPVLVIYQDTKRPSGIPERFSGSNSGNTATLTISETQAMDEADYYCQAWDTTTDWVFGGGTKLTVL
B10: human IgE mAb 2C9 (antibody, V domains shown)
VH: QVQLVESGGGLVKPGGSLRLSCAASGFSFSDFYMSWIRQAPGKGLECISYMSSSGGNIYYADSVKGRFTISRDNAKNSLSLQMNSLRADDTALYYCARRRYGSGSSIFDYWSQGTLVTVSS
VL: SYELTQPPSVSVSPGQTASVTCSGDTLGDRYVSWYQQKAGQSPVLVIYQSGQRPSGIPERFSGSNSGNTATLSISETQALDEADYYCLTWDRGTPVFGPGTTVTVV

Key:
[1] = target: T1, peanut allergen Ara h 1 (peanut (Arachis hypogaea)); test: ImmunoCAP, hybridoma supernatant
[2] = target: peanut extract (peanut ImmunoCAP F13); test: ImmunoCAP, hybridoma supernatant
[3] = target: T2, peanut allergen Ara h 2 (peanut (Arachis hypogaea)); test: ImmunoCAP, hybridoma supernatant
[4] = target: peanut extract (peanut ImmunoCAP F13); test: peanut ImmunoCAP serum blocking; competitor: serum IgE of peanut allergic subjects
[5] = target: T3, peanut allergen Ara h 6 (peanut (Arachis hypogaea)); test: Ara h 6 ImmunoCAP serum blocking; competitor: serum IgE of peanut allergic subjects

| Binder | ImmunoCAP kUA/L [1] | ImmunoCAP kUA/L [2] | ImmunoCAP kUA/L [3] | percent of total peanut binding serum IgE blocked [4] | percent of serum Ara h 6-specific IgE blocked [5] |
| --- | --- | --- | --- | --- | --- |
| B1 | 0.11 kUA/L | 286 kUA/L | 203 kUA/L |  |  |
| B2 |  | 14 kUA/L | 25.8 kUA/L |  |  |
| B3 |  |  |  | 20% and 25% | 50% |
| B4 | 0.15 kUA/L | 783 kUA/L | 0.46 kUA/L |  |  |
| B5 | 0.6 kUA/L | 3140 kUA/L | 0.85 kUA/L |  |  |
| B6 | 0.36 kUA/L | 715 kUA/L | 0.46 kUA/L |  |  |
| B7 |  |  |  | 20% and 25% | 50% |
| B8 | 0.3 kUA/L | 1500 kUA/L | 0.63 kUA/L |  |  |
| B9 | 0.19 kUA/L | 420 kUA/L | 0.41 kUA/L |  |  |
| B10 |  | 21.4 kUA/L | 0.13 kUA/L |  |  |
